Data taken from patent US20230372503A1, “CONJUGATE OF FUNCTIONAL POLYPEPTIDE VARIANT, AND USE THEREOF” (PROABTECH INC., priority 2020, published 2023).

Test: Pharmacokinetics (PK) of hGH variant-HSA conjugate, blood level by sandwich ELISA
Format: in vivo
Conditions: 7-week-old male ICR mice, 65 nmol/kg intravenous tail injection, blood 0.5-24 h
Description: For pharmacokinetic evaluation of the hGH variant-HSA conjugate, 7-week-old male ICR mice (n=6) were used. 65 nmol/kg each of hGH variant-HSA (L52) and hGH variant-HSA (Q141) was intravenously injected into the tail, blood collection was performed at 0.5, 4, 8, 12, and 24 hours after injection, and centrifugation was performed at 2,500 rpm for 10 minutes, followed by storing at −20° C. As a comparative group, Norditropin (somatropin, Novo Nordisk) was administered at the same concentration, and then compared with the above sample.
The hGH variant-HSA conjugate in blood was analyzed by sandwich ELISA (human growth hormone (GH) DouSet ELISA, R&D Systems). An anti-hGH capture antibody was added to coat an immunoplate at 4° C. overnight, and a reaction was blocked with 1% BSA in PBS at 37° C. for 1 hour. The blood sample collected and was diluted on the washed plate and left for 2 hours, and then treated with an anti-hGH detection antibody at room temperature for 2 hours. After treating the detection antibody with streptavidin-HRP at room temperature for 1 hour, 100 μL of a substrate was treated for 5 minutes and then 2N H2SO4 was treated to stop the reaction. Afterward, a microplate reader (Hidexsense, Finland) was used to measure an optical density at 450 nm. […]

Norditropin: comparative group, Norditropin (somatropin, Novo Nordisk)
half-life: 30 min
